Results from patent publication US20140142103, “Methods and Compositions for Modulating Rad51 and Homologous Recombination” (The University of Chicago, published 2014).

Target: RecA (UniProt P0A7G6 P0A7G6:2-353)
Test: FP; positive control; 10 mM Mg acetate, 2 mM ATP, 37 C
Conditions: tags: New England Biolabs; label: 5' fluorescein
Experimental: FIG. 2A, bottom: Purified RAD51 protein (wild type or mutant F86E) were serially diluted. RecA (New England Biolabs) was used as a positive control. Proteins were added to a 5′terminal fluorescein conjugated oligonucleotide (45 bases of dT) at a 1 μM nucleotide concentration. The mixture was incubated at 37° C. for 30 minutes in 384-well plates containing a reaction buffer (30 mM Tris/acetate pH 7.5, 10 mM Mg²⁺/acetate, 2 mM ATP, 0.1 mM DTT, 0.5 μM BSA). Fluorescence polarization was measured with a plate reader (filters: excitation=485 nm, emission=510 nm). FIG. 2B, top: Varying concentrations of 5′terminal fluorescein conjugated oligonucleotide were used to determine the threshold RAD51 concentration.
RAD51 filament formation can also be studied using oligonucleotides that are end-labeled with a fluorescent tag. Binding of proteins to this substrate DNA can be detected as an increase in anisotropy (or polarization) of the fluorescent tag. This method has been used to monitor the DNA-binding activity of yeast RAD51 (Kim et al., 2001) and RecA (Wittung et al., 1997; Ellouze et al., 1999), which is the […] homolog of RAD51. In this example, this method was modified so that very small sample volumes (30 μl) can be monitored in a high-throughput scale, using 384-well plates and a fluorescent plate reader. […]

Chain of RecA (P0A7G6 2-353, one chain of several): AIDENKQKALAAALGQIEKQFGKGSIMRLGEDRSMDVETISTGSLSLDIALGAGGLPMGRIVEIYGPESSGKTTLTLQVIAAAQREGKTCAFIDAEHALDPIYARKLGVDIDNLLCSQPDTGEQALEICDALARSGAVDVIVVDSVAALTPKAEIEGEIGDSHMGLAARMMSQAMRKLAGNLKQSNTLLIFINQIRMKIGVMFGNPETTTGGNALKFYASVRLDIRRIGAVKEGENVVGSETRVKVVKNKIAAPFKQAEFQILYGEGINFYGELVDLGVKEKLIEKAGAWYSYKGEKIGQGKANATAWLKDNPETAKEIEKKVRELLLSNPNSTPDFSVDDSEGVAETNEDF

Binder: TTTTTTTTTTTTTTTTTTTTTTTTTTTTTTTTTTTTTTTTTTTTT (ssDNA) [oligo dT45]
- binding result: binds
